These results are taken from patent publication US20240352128A1 (published 2024).

Residue numbers refer to the chain shown, from its start.

First the molecules themselves.
T1: human CD16b as FACS target of FIGS. 6B-10B (human, UniProt O75015 17-200)
T1 chain: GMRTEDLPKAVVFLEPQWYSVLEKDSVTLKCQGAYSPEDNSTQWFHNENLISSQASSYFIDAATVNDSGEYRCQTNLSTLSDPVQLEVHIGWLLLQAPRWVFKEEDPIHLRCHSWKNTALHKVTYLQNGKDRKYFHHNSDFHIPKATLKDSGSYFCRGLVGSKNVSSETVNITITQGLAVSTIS

T2: cynomolgus monkey CD16a on HEK293 cells expressing cyno monkey CD16a (constructed by Genscript) (cynomolgus monkey, UniProt Q8SPW2 17-254)
T2 chain: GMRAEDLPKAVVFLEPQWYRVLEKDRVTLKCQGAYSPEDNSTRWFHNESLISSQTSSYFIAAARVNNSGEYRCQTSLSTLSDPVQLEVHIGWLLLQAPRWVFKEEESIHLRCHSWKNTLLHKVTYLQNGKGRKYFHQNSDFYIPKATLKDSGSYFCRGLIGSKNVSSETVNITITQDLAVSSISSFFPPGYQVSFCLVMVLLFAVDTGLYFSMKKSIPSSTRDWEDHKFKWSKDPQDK

B1: pTT5-AR8820-2.3mIgG1Fc (Fc fusion)
VHH-Fc: EVQLVESGGGLIQPGGSLRLSCAASGSSISRYAMAWYRQAPGKGRELVSVVRITGSPIYADFVGGRFTISRDNSKNTLYLQMNSLRAEDTAVYYCNRGNFNTYTRRYSPSETWGQGTTVTVSSVPRDCGCKPCICTVPEVSSVFIFPPKPKDVLTITLTPKVTCVVVDISKDDPEVQFSWFVDDVEVHTAQTQPREEQFNSTFRSVSELPIMHQDWLNGKEFKCRVNSAAFPAPIEKTISKTKGRPKAPQVYTIPPPKEQMAKDKVSLTCMITDFFPEDITVEWQWNGQPAENYKNTQPIMDTDGSYFVYSKLNVQKSNWEAGNTFTCSVLHEGLHNHHTEKSLSHSPGK
B2: pTT5-AR8820-1.3mIgG1Fc (Fc fusion)
heavy: B1 VHH-Fc with E1Q, L11V, I12V, S49A, R97T, Q115K
B3: pTT5-AR8820-1.2mIgG1Fc (Fc fusion)
heavy: B1 VHH-Fc with E1Q, L11V, I12V, L47W, S49A, N96A, R97T, Q115K
B4: pTT5-AR8820-2.1mIgG1Fc (Fc fusion)
VHH-Fc: B1 VHH-Fc with N96A, R97T
B5: pTT5-AR8804-3.3mIgG1Fc (Fc fusion)
heavy: B1 VHH-Fc with E1Q, L11V, I12V, I29V, S49A, S56I, G64K, R97T, Q115K
B6: pTT5-AR8820-1.1mIgG1Fc (Fc fusion)
heavy: B1 VHH-Fc with E1Q, L11V, I12V, S49A, N96A, R97T, Q115K
B7: pTT5-AR8804-3.2 mIgG1Fc (Fc fusion)
heavy: QVQLVESGGGVVQPGGSLRLSCAASGSSVSRYAMAWYRQAPGKGREWVAVVRITGIPIYADFVKGRFTISRDNSKNTLYLQMNSLRAEDTAVYYCATGNFNTYTRRYSPSETWGKGTTVTVSSVPRDCGCKPCICTVPEVSSVFIFPPKPKDVLTITLTPKVTCVVVDISKDDPEVQFSWFVDDVEVHTAQTQPREEQFNSTFRSVSELPIMHQDWLNGKEFKCRVNSAAFPAPIEKTISKTKGRPKAPQVYTIPPPKEQMAKDKVSLTCMITDFFPEDITVEWQWNGQPAENYKNTQPIMDTDGSYFVYSKLNVQKSNWEAGNTFTCSVLHEGLHNHHTEKSLSHSPGK
B8: pTT5-AR8820-3.1 mIgG1Fc (Fc fusion)
heavy: B1 VHH-Fc with I12V, S49A, S74A, T77S, N96A, R97T, T118L
B9: pTT5-AR8820-3.3 mIgG1Fc (Fc fusion)
VHH-Fc: B1 VHH-Fc with I12V, S49A, S74A, T77S, R97T, T118L
B10: AR8875 sdAb fusion protein with mIgG1 Fc (Fc fusion)
chain: QVQLVESGGGLVQPGGSLRLSCAASGFTFSNYAMTWVRQAPGKGLEWVSSIDRGGSITSYADSVKGRFAISRDNAKNTMYLQMNNLRPEDTARYVCARGDSTYSRLTAAYRGQGTQVTVSSVPRDCGCKPCICTVPEVSSVFIFPPKPKDVLTITLTPKVTCVVVDISKDDPEVQFSWFVDDVEVHTAQTQPREEQFNSTFRSVSELPIMHQDWLNGKEFKCRVNSAAFPAPIEKTISKTKGRPKAPQVYTIPPPKEQMAKDKVSLTCMITDFFPEDITVEWQWNGQPAENYKNTQPIMDTDGSYFVYSKLNVQKSNWEAGNTFTCSVLHEGLHNHHTEKSLSHSPGK
B11: AR8776 sdAb fusion protein with mIgG1 Fc (Fc fusion)
chain: B10 chain with Q1A, T35S, D52N, S59N, M79I, R93Q, V95S, T107S
B12: AR8866 sdAb fusion protein with mIgG1 Fc (Fc fusion)
chain: QVKLEESGGGLVQPGGSLRLSCVASGFTFSVWTMSWVRQAPGKGLEWVSDISHSGIYTTYADSVKGRFTISRDNAKNTLWLQLNALKPEDTAVYYCAQGNRRNSMLSGTLRGQGTQVTVSSVPRDCGCKPCICTVPEVSSVFIFPPKPKDVLTITLTPKVTCVVVDISKDDPEVQFSWFVDDVEVHTAQTQPREEQFNSTFRSVSELPIMHQDWLNGKEFKCRVNSAAFPAPIEKTISKTKGRPKAPQVYTIPPPKEQMAKDKVSLTCMITDFFPEDITVEWQWNGQPAENYKNTQPIMDTDGSYFVYSKLNVQKSNWEAGNTFTCSVLHEGLHNHHTEKSLSHSPGK
B13: AR8861 sdAb fusion protein with mIgG1 Fc (Fc fusion)
chain: B12 chain with Q1A, K3Q, E5V, E6D, V31I, I56L, N103T
B14: AR8820 sdAb fusion protein with mIgG1 Fc (Fc fusion)
chain: QVKLEESGGGLVQAGGSLRLSCAASGSSISRYAMAWYRQGPGKERELVAVVRITGSPIYADFVGGRFTISRDNAKSTVLLQMNSLKPEDTAIYYCNTGNFNTYTRRYSPSETWGQGTQVTVSSVPRDCGCKPCICTVPEVSSVFIFPPKPKDVLTITLTPKVTCVVVDISKDDPEVQFSWFVDDVEVHTAQTQPREEQFNSTFRSVSELPIMHQDWLNGKEFKCRVNSAAFPAPIEKTISKTKGRPKAPQVYTIPPPKEQMAKDKVSLTCMITDFFPEDITVEWQWNGQPAENYKNTQPIMDTDGSYFVYSKLNVQKSNWEAGNTFTCSVLHEGLHNHHTEKSLSHSPGK
B15: AR8804 sdAb fusion protein with mIgG1 Fc (Fc fusion)
chain: B14 chain with Q1A, K3Q, E5V, E6D, I29V, G40A, S56I, G64K, S76N, K86E
B16: AR8887 sdAb fusion protein with mIgG1 Fc (Fc fusion)
chain: QVQLVESGGGLVQAGGSLRLSCAVSGFLYYSIGWFRQAPGKEREWVSCISRSGAGTSYANSVKGRSTISRDNDKNTVYLQMNSLKSEDTAVYYCARRATSSCTATMTRGQYDYWGQGTQVTVSSVPRDCGCKPCICTVPEVSSVFIFPPKPKDVLTITLTPKVTCVVVDISKDDPEVQFSWFVDDVEVHTAQTQPREEQFNSTFRSVSELPIMHQDWLNGKEFKCRVNSAAFPAPIEKTISKTKGRPKAPQVYTIPPPKEQMAKDKVSLTCMITDFFPEDITVEWQWNGQPAENYKNTQPIMDTDGSYFVYSKLNVQKSNWEAGNTFTCSVLHEGLHNHHTEKSLSHSPGK

For one assay, the target named is T3, human CD16a on HEK293 cells expressing human CD16a (constructed by Genscript) (human, UniProt P08637 17-254). Put plainly: FACS. (A flow cytometer gives signals particle by particle.)
T3 sequence (P08637 17-254): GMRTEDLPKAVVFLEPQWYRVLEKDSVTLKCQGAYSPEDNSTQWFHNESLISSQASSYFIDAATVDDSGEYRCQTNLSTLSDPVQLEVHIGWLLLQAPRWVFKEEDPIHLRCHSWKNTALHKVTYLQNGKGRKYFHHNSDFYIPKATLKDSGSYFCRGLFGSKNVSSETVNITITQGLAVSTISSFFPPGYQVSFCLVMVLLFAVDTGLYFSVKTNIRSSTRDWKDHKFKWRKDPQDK
The EC50 is the midpoint of the concentration-response curve. Regarding B1, the EC50 worked out at 0.332 nM.

The molecule B2 displayed an EC50 of 0.384 nM.

B3 had an EC50 of 0.47 nM.

Regarding B4, the response was half-maximal at 0.494 nM (EC50).

For the molecule B5, the EC50 was found to be 0.412 nM.

With B6, the EC50 was found to be 0.38 nM.

On to B7, for which a half-maximal effect (EC50) was put at 0.444 nM.

In another assay the target is T1, human CD16b as FACS target of FIGS. …. Description: FACS.
Take B1: the EC50 was about 167 µM.

The molecule B3 came in with an EC50 of about 0.497 µM.

B4 showed an EC50 of about 7840 µM.

Consider B6, for which the EC50 is about 65.6 µM.

Regarding B7, the EC50 is about 195 µM.

A further assay deals with T3, human CD16a on HEK293 cells expressing …. Description: FACS. This is another data set of the same source.
B8 had an EC50 of 0.419 nM.

Regarding B9, the EC50 is 0.452 nM.

The next assay concerns the target T1, human CD16b as FACS target of FIGS. …. Put plainly: FACS. The source holds these as a separate data set.
In turn, B8 gave an EC50 of 62.3 nM.

Molecule B9 registered an EC50 of 61.8 nM.

The target in the next assay is T2, cynomolgus monkey CD16a on HEK293 cells …. Description: FACS.
In turn, B1 displayed an EC50 of 0.745 nM.

B2 returned an EC50 of 0.772 nM.

Regarding B3, the EC50 amounted to 0.914 nM.

Take B8: the EC50 amounted to 0.738 nM.

B4: the midpoint of the response, the EC50, lay at 0.787 nM.

B5: a half-maximal effect (EC50) was put at 0.838 nM.

In turn, B6 gave a concentration giving a half-maximal response (EC50) of 0.92 nM.

In the case of B9, a half-maximal effect (EC50) was put at 0.751 nM.

B7 gave an EC50 of 0.928 nM.

The target of another assay is recombinant human CD16a-His protein (Acro Biosystems; catalog #: CDA-H52S1) (human, UniProt P08637 17-208). Description: ELISA (OD450; legend says FACS). (ELISA stands for enzyme-linked immunosorbent assay.)
recombinant human CD16a-His protein (Acro Biosystems; catalog #: CDA-H52S1), sequence (P08637 17-208): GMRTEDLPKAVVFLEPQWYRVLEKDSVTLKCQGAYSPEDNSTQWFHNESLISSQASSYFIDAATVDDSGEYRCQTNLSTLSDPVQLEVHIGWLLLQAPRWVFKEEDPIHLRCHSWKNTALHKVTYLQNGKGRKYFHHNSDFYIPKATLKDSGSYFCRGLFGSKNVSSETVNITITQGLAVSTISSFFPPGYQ
Consider B10, for which the EC50 came out at 0.018 µg/mL.

For B11, the EC50 was found to be 0.0155 µg/mL.

With B12, the EC50 was found to be 0.0174 µg/mL.

In the case of B13, the EC50 was determined as 0.0227 µg/mL.

With B14, the EC50 came out at 0.0151 µg/mL.

Consider B15, for which the EC50 came out at 0.0158 µg/mL.

Consider B16, for which the EC50 stood at 0.0217 µg/mL.
